Reference: patent US20220227863A1

Target: human ILT3 on cells (human) (UniProt Q8NHJ6)
Assay: flow cytometry on THP1 cells, enumeration of the ILT3 antigen density with clone ZM4.1; unit not given

human ILT3 on cells (human), sequence (Q8NHJ6 22-448 D223G/Q414R): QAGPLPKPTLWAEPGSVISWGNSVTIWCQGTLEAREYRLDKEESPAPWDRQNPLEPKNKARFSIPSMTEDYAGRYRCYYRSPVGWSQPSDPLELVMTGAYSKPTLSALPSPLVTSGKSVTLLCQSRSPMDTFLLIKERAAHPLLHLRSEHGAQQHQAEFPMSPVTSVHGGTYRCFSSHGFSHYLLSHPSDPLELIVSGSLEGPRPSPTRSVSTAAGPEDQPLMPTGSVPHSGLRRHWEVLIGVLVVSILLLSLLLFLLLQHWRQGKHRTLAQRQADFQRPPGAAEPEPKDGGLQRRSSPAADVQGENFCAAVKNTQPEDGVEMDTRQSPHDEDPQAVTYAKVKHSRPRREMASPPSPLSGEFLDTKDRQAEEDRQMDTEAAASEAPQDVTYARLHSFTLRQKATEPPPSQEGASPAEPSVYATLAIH

Ag density: 147000
Substance: mouse anti-ILT3 monoclonal antibody, clone ZM4.1
